Data set [1] is described as follows: Body weight loss and tolerability in the H292-HGF xenograft study. The settings on record: mouse, in vivo.
Description: At the time of routine monitoring, the animals were checked for any effects of tumor growth and treatments on normal behavior, such as mobility, visual estimation of food and water consumption, body weight gain/loss (body weights were measured twice weekly), eye/hair matting and any other abnormal effect.
Animals for which the body weight loss exceeded 20%, or for which the mean tumor size of the group exceeds 2000 mm^3 were euthanized. The study was terminated after two weeks of observation after the final dose.
Data set [2] concerns H292-HGF human lung cancer xenograft. Description: Efficacy of bispecific molecule and other inhibitors of EGFR and c-Met, subcutaneous H292-HGF human lung cancer xenograft. The class given is in vivo, SCID/Beige mice. The conditions noted are these: for antitumor activity (in words): mouse, in vivo; for Tumor volume: mean ± SEM. For orientation: Xenograft models place foreign cells or tissue in a host animal.
Description: The H292-HGF cells were maintained in vitro in RPMI1640 medium supplemented with fetal bovine serum (10% v/v), and L-glutamine (2 mM) at 37° C. in an atmosphere of 5% CO2 in air. The cells were routinely subcultured twice weekly by trypsin-EDTA treatment. The cells growing in an exponential growth phase were harvested and counted for tumor inoculation.
Each mouse was inoculated subcutaneously at the right flank region with H292-HGF tumor cells (2×10^6) in 0.1 ml of PBS with cultrex (1:1) for tumor development. The treatments were started when the mean tumor size reached 139 mm3. […] The date of tumor cell inoculation was denoted as day 0.
Before commencement of treatment, all animals were weighed, and the tumor volumes were measured. Since the tumor volume can affect the effectiveness of any given treatment, mice were assigned into groups using randomized block design based upon their tumor volumes. […] The randomized block design was used to assign experimental animals to groups. First, the experimental animals were divided into homogeneous blocks according to their initial tumor volume. Secondly, within each block, randomization of experimental animals to treatments was conducted.
The endpoint was whether tumor growth can be delayed or tumor bearing mice can be cured. Tumor size was measured twice weekly in two dimensions using a caliper, and the volume was expressed in mm3 using the formula: V=0.5 a×b2 where a and b are the long and short diameters of the tumor, respectively. The tumor size was then used for calculations of both T-C and T/C values. T-C was calculated with T as the time (in days) required for the mean tumor size of the treatment group to reach 1000 mm3, and C was the time (in days) for the mean tumor size of the control group to reach the same size. The T/C value (in percent) was an indication of antitumor efficacy; T and C were the mean tumor volume of the treated and control groups, respectively, on a given day. Complete tumor regression (CR) is defined as tumors that are reduced to below the limit of palpation (62.5 mm3). Partial tumor regression (PR) is defined as tumors that are reduced from initial tumor volume. A minimum duration of CR or PR in 3 or more successive tumor measurements is required for a CP or PR to be considered durable.
Statistical analyses of difference in tumor volume among the groups were evaluated using a one-way ANOVA followed by individual comparisons using Games-Howell (equal variance not assumed). All data were analyzed using SPSS 18.0. p<0.05 was considered to be statistically significant.

The test system of data set [3] is cell lines shown in Table 20. The experiment in a line: Inhibition of human tumor cell growth by bispecific molecule in cell line panel (standard or low attachment). The class given is cell-based. As to the method:
(§1) Inhibition of human tumor cell growth was assessed in standard attachment culture as described in Examples 3 or 6, or in low attachment conditions.

The target in another data set is T1, c-Met-Fc fusion protein (Homo sapiens, UniProt P08581).
T1 construct: recombinant EGFR and/or c-Met extracellular domain
T1 sequence (P08581 25-932 limits assumed): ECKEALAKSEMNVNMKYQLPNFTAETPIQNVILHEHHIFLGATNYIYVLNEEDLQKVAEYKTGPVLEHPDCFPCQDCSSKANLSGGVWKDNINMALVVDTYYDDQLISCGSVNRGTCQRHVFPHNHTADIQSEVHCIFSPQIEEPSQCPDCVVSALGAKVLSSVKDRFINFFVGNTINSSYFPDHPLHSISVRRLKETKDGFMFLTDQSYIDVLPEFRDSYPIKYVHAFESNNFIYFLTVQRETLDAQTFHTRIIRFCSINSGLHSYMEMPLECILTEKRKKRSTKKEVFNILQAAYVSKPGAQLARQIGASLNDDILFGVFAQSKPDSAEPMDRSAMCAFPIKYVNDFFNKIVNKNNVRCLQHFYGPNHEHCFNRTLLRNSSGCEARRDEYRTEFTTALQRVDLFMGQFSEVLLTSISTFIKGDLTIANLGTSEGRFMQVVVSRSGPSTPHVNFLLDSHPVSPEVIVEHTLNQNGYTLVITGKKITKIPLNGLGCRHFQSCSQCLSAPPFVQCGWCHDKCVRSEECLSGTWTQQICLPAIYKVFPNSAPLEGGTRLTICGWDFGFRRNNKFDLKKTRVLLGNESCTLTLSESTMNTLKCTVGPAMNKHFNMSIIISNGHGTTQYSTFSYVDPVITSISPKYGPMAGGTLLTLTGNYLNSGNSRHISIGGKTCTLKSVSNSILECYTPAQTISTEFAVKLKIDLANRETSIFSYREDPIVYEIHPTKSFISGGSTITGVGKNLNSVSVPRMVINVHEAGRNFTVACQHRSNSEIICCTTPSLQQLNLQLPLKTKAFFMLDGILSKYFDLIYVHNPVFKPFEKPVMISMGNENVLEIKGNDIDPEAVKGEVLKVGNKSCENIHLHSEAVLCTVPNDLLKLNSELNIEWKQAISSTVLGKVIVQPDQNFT
Description: c-Met-Fc affinity by surface plasmon resonance (Proteon). The class given is binding. Background: Surface plasmon resonance follows binding to a sensor surface in real time, without labels.

Another data set deals with H292 cells. Description: Inhibition of proliferation of HGF-induced H292 cells. It counts as cell-based, human. The settings on record: bispecific molecules.
From the text: Inhibition of tumor cell proliferation can be measured using standard methods and methods described herein.
The proliferation assay was completed using different combinations EGFR and c-Met binding FN3 domains either as a mixture or linked in a bispecific format. […] This confirmed that the avidity effect observed at the level of the receptors (FIG. 4 and FIG. 5) translates into an improvement in inhibiting cell signaling (Table 12) and cell proliferation (Table 13).
as §1

For data set [4], the target named is T2, recombinant EGFR extracellular domain (EGFR-Fc) (Homo sapiens, UniProt P00533).
T2 construct: purchased R&D Systems
Description: EGFR-Fc affinity by surface plasmon resonance (Proteon). It counts as binding. The settings on record: bispecific molecules; read-out: KD (EGFR). As to the method:
Select EGFR-binding FN3 domains were screened to identify those with slow off-rates (koff) in binding to EGFR-Fc on a ProteOn XPR-36 instrument (Bio-Rad) to facilitate selection of high affinity binders. Goat anti-human Fc IgG (R&D systems), at a concentration of 5 μg/mL, was directly immobilized via amine coupling (at pH 5.0) on all 6 ligand channels in horizontal orientation on the chip with a flow rate of 30 μL/min in PBS containing 0.005% Tween-20. The immobilization densities averaged about 1500 Response Units (RU) with less than 5% variation among different channels. EGFR-Fc was captured on the anti-human Fc IgG surface to a density around 600 RU in vertical ligand orientation. All tested FN3 domains were normalized to a concentration of 1 μM and tested for their binding in horizontal orientation. […] The dissociation phase was monitored for 10 minutes at a flow rate of 100 μL/min. […]
Binding affinity of selected EGFR-binding FN3 domains to recombinant EGFR extracellular domain was further characterized by surface Plasmon resonance methods using a Proteon Instrument (BioRad). […] The dissociation phase for all concentrations of each EGFR-binding FN3 domain was monitored at a flow rate of 100 μL/min for 30 minutes (for those with koff ˜10^−2 s^−1 from off-rate screening), or 1 hour (for those with koff ˜10^−3 s^−1 or slower). […]

Data set [5] can be described thus: Differential scanning calorimetry in PBS (thermal stability). The class given is physicochemical. The conditions noted are these: DSC in PBS, EGFR-binding FN3 domains. An excerpt:
A subset of the EGFR binding FN3 domains was engineered to increase the conformational stability of each molecule. […] The new mutants, P54AR5-83v2, P54CR431-v2, and P54AR4-37v2 were expressed and purified as described above. Differential scanning calorimetry in PBS was used to assess the stability of each mutant in order to compare it to that of the corresponding parent molecule.
Differential scanning calorimetry in PBS was used to assess the stability of each FN3 domain.

Data set [6] deals with NCI-H292 cells expressing human HGF. The experiment in a line: Tumor efficacy study with four bispecific EGFR/c-Met molecules, H292-HGF xenografts. It counts as in vivo, SCID Beige mice. The settings on record: 25 mg/kg three times per week. As to the method:
One week after implantation, mice were stratified into groups with equivalent tumor volumes (mean tumor volume=77.9+/−1.7 mm3). Mice were dosed three times per week with the bispecific molecules and tumor volumes were recorded twice weekly.

The mark [7] stands for this setting: serine mutants of A3 in the context of ECB15.
Setting [8] is: listed as bispecific EGFR/c-Met molecule.

Where “and” joins values, the source holds several entries; their conditions need not be identical. Equal values may be shown once. Entries after “also recorded” stand apart in the source; their conditions may differ.

In the case of `C[C@@H](Oc1cc(-c2cnn(C3CCNCC3)c2)cnc1N)c1c(Cl)ccc(F)c1Cl` [Crizotinib, crizotinib, reference compound], the “toxicity, body weight loss, tolerability (in words)” value (“toxicity, body weight loss” below) in data set [1] is listed as “More severe body weight loss”. Besides, the “antitumor activity (in words)” value in data set [2] is recorded as “no antitumor activity”.
As to `C#Cc1cccc(Nc2ncnc3cc(OCCOC)c(OCCOC)cc23)c1` [Erlotinib, erlotinib, reference compound], the “toxicity, body weight loss” value in data set [1] was “More severe body weight loss”.

B1: ECB15: bispecific SEQ ID NO: 57: P54AR4-83v2, (AP)5, P114AR7P94-A3 (protein)
chain: MLPAPKNLVVSEVTEDSARLSWDDPWAFYESFLIQYQESEKVGEAIVLTVPGSERSYDLTGLKPGTEYTVSIYGVHNVYKDTNMRGLPLSAIFTTAPAPAPAPAPLPAPKNLVVSRVTEDSARLSWTAPDAAFDSFWIRYFEFLGSGEAIVLTVPGSERSYDLTGLKPGTEYVVNIMGVKGGKISPPLSAIFTT
modifications: bispecific EGFR/cMet binding molecule
As for B1, in data set [3] (EGFR L858R, T790M), the “growth of NCI-H1975 cell line” value is listed as “inhibited growth”. Moreover, in data set [3] (wild type, amplified or mutant EGFR, wild type or amplified c-Met), the “tumor cell growth of cell lines shown in Table 20” value is “inhibited tumor cell growth”. In the data set with c-Met-Fc fusion protein (setting [7]), this molecule yielded a ka of 351000 M⁻¹ s⁻¹ and a kd of 0.000133 s⁻¹. The IC50 in the data set on H292 cells stood at 23 nM.

B2: ECB168: bispecific SEQ ID NO: 190: P54AR4-83v22, (AP)5, P114AR7P95-C5v2 (protein)
chain: MLPAPKNLVVSEVTEDSARLSWDDPWAFYESFLIQYQESEKVGEAIVLTVPGSERSYDLTGLKPGTEYTVSIYGVHNVYKDTNIRGLPLSAIFTTAPAPAPAPAPLPAPKNLVVSRVTEDSARLSWTAPDAAFDSFWIRYFEFLGSGEAIVLTVPGSERSYDLTGLKPGTEYVVNILSVKGGSISPPLSAIFTT
modifications: Bispecific EGFR/c-Met molecule
In the case of B2, the Kd in data set [4] is 0.4 nM; with c-Met-Fc fusion protein (bispecific molecules, read-out: KD (c-Met)) it was 0.32 nM. The IC50 in the data set on H292 cells was found to be 3.1 nM.

B3: P54CR4-31: EGFR-binding FN3 domain, SEQ ID NO: 26 (protein)
chain: LPAPKNLVVSEVTEDSLRLSWTAPDAAFDSFLIQYQESEKVGEAINLTVPGSERSYDLTGLKPGTEYTVSIYGVLGSYVFEHDVMLPLSAEFTT
modifications: EGFR binding FN3 domain
With B3, the Tm in data set [5] came out at 60.9 °C.

B4: P54CR4-31v2: EGFR-binding FN3 domain, SEQ ID NO: 28; stabilized P54CR4-31 (protein)
chain: LPAPKNLVVSEVTEDSARLSWTAPDAAFDSFLIQYQESEKVGEAIVLTVPGSERSYDLTGLKPGTEYTVSIYGVLGSYVFEHDVMLPLSAIFTT
modifications: EGFR binding FN3 domain
Consider B4, for which the Tm in data set [5] was 78.9 °C.

B5: P54AR4-37: EGFR-binding FN3 domain, printed SEQ ID NO: 22 (possibly P54AR4-73) (protein)
chain: LPAPKNLVVSEVTEDSLRLSWTWPYADLDSFLIQYQESEKVGEAINLTVPGSERSYDLTGLKPGTEYTVSIYGVHNVYKDTNMRGLPLSAEFTT
modifications: EGFR binding FN3 domain
For the molecule B5, the Tm in data set [5] was 45.9 °C.

B6: ECB38: bispecific SEQ ID NO: 120: P54AR4-83v2, (AP)5, P114AR7P94-A3, linked to albumin binding domain (protein)
chain: MLPAPKNLVVSEVTEDSARLSWDDPWAFYESFLIQYQESEKVGEAIVLTVPGSERSYDLTGLKPGTEYTVSIYGVHNVYKDTNMRGLPLSAIFTTAPAPAPAPAPLPAPKNLVVSRVTEDSARLSWTAPDAAFDSFWIRYFEFLGSGEAIVLTVPGSERSYDLTGLKPGTEYVVNIMGVKGGKISPPLSAIFTTAPAPAPAPAPLAEAKVLANRELDKYGVSDYYKNLINNAKTVEGVKALLDEILAALP
modifications: Bispecific EGFR/c-Met binding molecule
Take B6: the “toxicity, body weight loss” value in data set [1] (setting [8]) is given as “Slight toxicity; also recorded: tolerated in 7 out of 10 mice”. Besides, the “Tumor Size at day 23” value in data set [2] (bispecific 25 mg/kg, crizotinib, erlotinib 50 mg/kg, cetuximab 1 mg/mouse, listed as bispecific EGFR/c-Met molecule) is 23 mm^3 and 23 ± 7 mm^3. For the same molecule, the Tumor volume in data set [2] (day 7 (start of treatment)) stood at 137 ± 7 mm^3; in data set [2] (day 9), 142 ± 7 mm^3; in data set [2] (day 13), 83 ± 6 mm^3; in data set [2] (day 16), 44 ± 7 mm^3; in data set [2] (day 20) it was 30 ± 6 mm^3; in data set [2] (day 23) it was 23 ± 7 mm^3. In addition, the Tumor volume in data set [2] (day 27) was determined as 21 ± 5 mm^3; in data set [2] (day 30), 23 ± 6 mm^3. For the same molecule, the “antitumor activity (in words)” value in data set [2] (setting [8]) was “complete tumor regression (CR) in all mice; also recorded: complete response”. Besides, the “tumor growth (tumor growth inhibition, TGI)” value in data set [6] is on record as “reduced tumor growth”; in data set [6] (listed as P54AR4-83v2-P114AR7P94-A3), “showed the most efficacy”.

Usually IC50 stands for the midpoint of a concentration-inhibition curve. As a reminder, the Kd is the concentration at which binding is half-saturated. Usually Tm stands for the temperature at the midpoint of the melting transition.

Source of the values: patent US12304939B2, “EGFR and C-met fibronectin type III domain binding molecules” (Janssen Biotech, Inc., priority 2012, dated 2025).
